Patent publication US8133978 (GlaxoSmithKline, dated 2012)

Key:
[1] = biological target: T1, Human interleukin-18 (recombinant human IL-18) (human, UniProt Q14116 37-193); test: SPR, Biacore T100, antibody captured on Protein A, 37 C
T1 construct: also called hIL-18
T1 sequence: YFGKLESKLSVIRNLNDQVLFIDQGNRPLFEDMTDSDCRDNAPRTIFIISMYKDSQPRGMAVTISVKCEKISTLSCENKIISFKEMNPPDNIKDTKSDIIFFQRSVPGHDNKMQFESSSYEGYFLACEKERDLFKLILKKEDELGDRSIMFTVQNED
Protocol: (§1) The methodology was basically the same as for the method used in Example 4a above; Protein A was immobilised on a CM5 chip at densities of between 2000-6000 RU's by primary amine coupling. Runs were carried out in HBS-EP (Biacore™). The anti-IL-18 antibodies were captured to densities of between 100-500 RUs, human IL-18 was passed over this captured surface at concentrations between 16-0.0625 nM, with 0 nM concentration (i.e., a buffer only injection of captured antibody) used for double referencing. Regeneration after each injection of IL-18 was by mild acidic elution using two injections of 10 mM glycine, pH1.5. […] The binding curves obtained were analysed using the analysis software inherent to the T100 machine using the 1:1 model of binding. Runs were carried out at the temperatures indicated.
(§2) This experiment was carried out using the above method at various temperatures. […] Table 5 details the kinetic values used to create these figures.

[2] = biological target: T1, Human interleukin-18 (recombinant human …); test: SPR, Biacore T100, antibody captured on Protein A, 32 C
Protocol: as §1, §2

[3] = biological target: T1, Human interleukin-18 (recombinant human …); test: ELISA, antibody on plate, human IL-18 captured, detected by 16D10; room temperature, blocking buffer
Protocol: (§3) ELISA was carried out with the three Humanised H1 variants; H1L1, H1L2 and H1L3 to assess binding to human IL-18 at room temperature and at 37° C. in both human serum and in block solution (PBS 0.05% TWEEN with 1% BSA (w/v)). The Humanised antibody variants were immobilised on Nunc Maxisorp 96-well plates at 2.5 µg/ml. Capture of 5 ng/ml of recombinant human IL-18 was carried out either at room temperature or 37° C. in human serum or block solution. Anti-IL-18 mouse monoclonal antibody 16D10 was added. The bound mouse antibody was detected using anti-mouse kappa peroxidase conjugate (Serotec MCA 1291P). Representative EC50 values generated from the study data are illustrated in Table 9.

[4] = biological target: T1, Human interleukin-18 (recombinant human …); test: ELISA, antibody on plate, human IL-18 captured, detected by 16D10; room temperature, in serum; room temperature incubation, in presence of serum
Protocol: as §3

[5] = biological target: T1, Human interleukin-18 (recombinant human …); test: SPR, Biacore T100, antibody captured on Protein A, 15 C
Rhesus IL-18 = biological target: T2, Rhesus IL-18 (rhesus (rhesus/cynomolgus)); test: Rhesus IL18 binding ELISA, antibody titrated, OD 490 nm
T2 construct: also called Rhesus/Cynomolgus IL-18; rhesus/cynomolgus IL-18

[6] = biological target: T1, Human interleukin-18 (recombinant human …); test: SPR, Biacore T100, antibody captured on Protein A, 20 C
Protocol: as §1, §2

[7] = biological target: T1, Human interleukin-18 (recombinant human …); test: SPR, Biacore T100, antibody captured on Protein A, 25 C
Protocol: as §1, §2

[8] = biological target: T1, Human interleukin-18 (recombinant human …); test: ELISA, IL-18 bp-Fc coated at 0.5 ug/ml, human IL-18 added at 100 ng/ml, antibody titrated, detection anti-human kappa HRP, Abs 490 nm

B1: H1L2 humanised anti-IL-18 antibody (antibody, human IgG1, kappa, V domains shown)
VH: QVQLVQSGAEVKKPGASVKVSCKVSGEISTGYYFHWVRQAPGKGLEWMGRIDPEDDSTKYAERFKDRVTMTEDTSTDTAYMELSSLRSEDTAVYYCTTWRIYRDSSGRPFYVMDAWGQGTLVTVSS
VL: DIQMTQSPSSVSASVGDRVTITCLASEDIYTYLTWYQQKPGKAPKLLIYGANKLQDGVPSRFSGSGSGTDYTLTISSLQPEDFATYYCLQGSKFPLTFGQGTKLEIKR
notes: Human IgG1 / kappa
Q: Which results are given for B1?
A: Kd [1]: 0.0223 nM; Kd [2]: 0.0189 nM; EC50 [3]: 0.00355 µg/mL; EC50 [4]: 0.00979 µg/mL; Kd [5]: 0.01 nM; EC50 (read off the curve) (Rhesus IL-18): ~0.03 µg/mL; Kd [6]: 0.0089 nM; Kd [7]: 0.0125 nM; EC50 (read off the curve) [8]: ~0.04 µg/mL
